# Measured values taken from PMC4288183.
# Columns and labels:
# [1] = target: T1, MNV RdRp (NS7) WT (Murine norovirus 1 strain CW1) (UniProt Q80J95); experiment: fluorescence polarization competition; conditions: FP: 10 mM Tris-HCl pH 8.0, 30 mM NaCl, 1% glycerol, 0.5 mM 2-mercaptoethanol, 0.1 uM fMps, temperature not stated; synthesis competition: 20 mM Na glutamate pH …
# T1 sequence: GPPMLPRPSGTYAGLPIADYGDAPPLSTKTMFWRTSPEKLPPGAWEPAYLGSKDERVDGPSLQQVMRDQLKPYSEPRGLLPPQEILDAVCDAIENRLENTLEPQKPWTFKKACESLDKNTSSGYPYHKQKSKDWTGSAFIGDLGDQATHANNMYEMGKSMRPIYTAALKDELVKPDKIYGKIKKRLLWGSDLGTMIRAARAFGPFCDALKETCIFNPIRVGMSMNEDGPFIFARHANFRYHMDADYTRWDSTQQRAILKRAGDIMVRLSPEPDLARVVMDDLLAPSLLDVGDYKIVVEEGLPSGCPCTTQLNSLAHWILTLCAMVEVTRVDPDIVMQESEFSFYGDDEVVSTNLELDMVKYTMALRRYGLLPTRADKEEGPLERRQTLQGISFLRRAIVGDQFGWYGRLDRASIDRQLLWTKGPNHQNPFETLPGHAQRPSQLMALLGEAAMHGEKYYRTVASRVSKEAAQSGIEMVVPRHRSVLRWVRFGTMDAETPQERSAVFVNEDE
# [2] = target: T1, MNV RdRp (NS7) WT (Murine norovirus 1 strain CW1); experiment: fluorescence polarization; conditions: FP: 10 mM Tris-HCl pH 8.0, 30 mM NaCl, 1% glycerol, 0.5 mM 2-mercaptoethanol, 0.1 uM fMps, temperature not stated; synthesis competition: 20 mM Na glutamate pH …
Sequence,IC50 [1] [nM],Ki [1] [nM],Kd [2] [nM]
GCGUCAUUCACAAAGACUGCUGAGCGUUCCUGCGGGGUCUCAGCAUCCAUU [Mps (MNV subgenomic proscript)],2360,680,
CUGCUGAGCGUUCCUGCGGGGUCUCAGCAU [Mhp (hairpin of Mps; also printed Mph)],16200,6300,
GCGUCAUUCACAAAGACUGCUGAGCGUUCCUGCGGGGUCUCAGCAUCCAUU [fMps (6-FAM MNV subgenomic proscript)],,,500
